Results taken from article PMC4484809, “Formation of a Trimeric Xpo1-Ran[GTP]-Ded1 Exportin Complex Modulates ATPase and Helicase Activities of Ded1”.

Assays:
Xpo1;Ran[GTP] Q71L = Xpo1;Ran[GTP] Q71L (Saccharomyces cerevisiae;Saccharomyces …, UniProt P30822;P32835 1-1071;1-219, |Q71L); assay: EMSA; no Ded1; no significant supershift; EMSA: 50 mM Tris pH 7.8, 60 mM NaCl, 2 mM MgCl2, 0.1 mg/mL BSA, 5% glycerol, 1 U/uL RNasin Plus, 0.01% NP-40, 1 mM DTT; 900 nM Ded1, 10 nM RNA, 20 min room temp
Ded1 wild type = Ded1 wild type (Saccharomyces cerevisiae, UniProt P06634 1-604); assay: EMSA; 3 mM AMP-PNP; challenged with unlabeled 41mer RNA; EMSA: 50 mM Tris pH 7.8, 60 mM NaCl, 2 mM MgCl2, 0.1 mg/mL BSA, 5% glycerol, 1 U/uL RNasin Plus, 0.01% NP-40, 1 mM DTT; 900 nM Ded1, 10 nM RNA, 20 min room temperature, then 41mer competitor RNA (27 uM solution) 1 min before 7% native PAGE at 4 C; details: protein: recombinant; tags: His-tag removed with preScission protease; N-terminal GP from vector; single-stranded
Ded1 sNES = Ded1 sNES (Saccharomyces cerevisiae, UniProt P06634 =D+1-604, A2D;E6K;Q7K;V8F;Q9G;N10T;internal_change); assay: EMSA; 3 mM AMP-PNP; bound to the same extent as wild-type Ded1; EMSA: 50 mM Tris pH 7.8, 60 mM NaCl, 2 mM MgCl2, 0.1 mg/mL BSA, 5% glycerol, 1 U/uL RNasin Plus, 0.01% NP-40, 1 mM DTT; 900 nM Ded1, 10 nM RNA, 20 min room temperature, then 41mer competitor RNA (27 uM solution) 1 min before 7% native PAGE at 4 C; details: protein: recombinant; tags: His-tag removed with preScission protease; N-terminal GP from vector; single-stranded

B1: 25mer FAM-labeled ssRNA (ssRNA)
RNA: CGAAUUCAAAACAAAACAAAACUAG
Xpo1;Ran[GTP] Q71L
  binding result: no binding
Ded1 wild type
  binding result: binds
Ded1 sNES
  binding result: binds
